Assay results from publication PMC10132618.

Key:
[1] = biological target: T1, GST-Fob1 (prep also contains free Fob1) (Saccharomyces cerevisiae) (UniProt O13329); assay: EMSA; settings: 10 mM Tris pH 7.5, 1 mM EDTA, 0.1 M KCl, 0.1 mM DTT, 5% glycerol, 20 ul, 30 C 30 min; 6% PAGE in 0.5X TBE
T1 sequence: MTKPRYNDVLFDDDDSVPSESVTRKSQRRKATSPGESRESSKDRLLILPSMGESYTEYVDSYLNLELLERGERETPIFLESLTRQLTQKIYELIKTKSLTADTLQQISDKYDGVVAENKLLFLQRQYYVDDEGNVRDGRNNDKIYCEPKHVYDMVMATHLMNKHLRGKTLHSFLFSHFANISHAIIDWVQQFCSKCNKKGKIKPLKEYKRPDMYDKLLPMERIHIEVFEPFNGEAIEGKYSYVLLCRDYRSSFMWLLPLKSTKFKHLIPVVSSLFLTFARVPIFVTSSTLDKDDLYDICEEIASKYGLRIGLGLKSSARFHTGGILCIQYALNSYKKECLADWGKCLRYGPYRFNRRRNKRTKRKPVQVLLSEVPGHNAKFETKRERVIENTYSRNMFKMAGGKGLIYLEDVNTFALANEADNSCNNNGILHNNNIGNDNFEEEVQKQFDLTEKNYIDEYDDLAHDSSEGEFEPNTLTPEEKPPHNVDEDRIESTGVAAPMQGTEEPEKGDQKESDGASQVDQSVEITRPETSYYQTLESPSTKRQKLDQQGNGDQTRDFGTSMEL

[2] = biological target: T1, GST-Fob1 (prep also contains free Fob1) (Saccharomyces cerevisiae); assay: competition; settings: 10 mM Tris pH 7.5, 1 mM EDTA, 0.1 M KCl, 0.1 mM DTT, 5% glycerol, 20 ul, 30 C 30 min; 6% PAGE in 0.5X TBE

## TGCTAGTGTTTGCAAGATGGTGCTTTTTTTTCTTTAGATTGCCACGTTTCTGCTCCT (double strand) [RDT1 promoter probe (57 bp)]
[1]
  binding: binds
[2]
  binding: binds
